From US20090075304A1 (published 2009)

Target: T1, activated soluble HLA-A*0201
T1 construct: MHC class I molecule that receives peptide in the fluorescence polarization assay (PolyTest); also called sHLA
Assay: fluorescence polarization competition (PolyTest)
Description: FP-based peptide binding assay (PolyTest). […] For all preparations, 1×BGG/PBS was used as buffer. […] FP values given as milli-polarization (mP) are calculated by the equation:polarization (mP)=1000(S−GP)/(S+GP), where S and P are background-subtracted intensities of the fluorescence measured in the parallel (S) and perpendicular (P) directions, respectively, and G (grating) is the instrument and assay dependent correction factor.
Competition experiments were analyzed by plotting FPₘₐₓ (maximal polarization) values as a function of the logarithms of competitor concentrations. […] Observed inhibitory concentrations (IC₅₀) were determined by nonlinear curve fitting to a dose-response model with variable slope using the specific software Prism (Graph Pad Software Inc.; San Diego, Calif.).

Binder: TMTRVLQGV (also called TMT(40)) [TMTRVLQGV, human chorionic gonadotropin-beta peptide 40-48]
- binding result: binds

Binder: VLQGVLPAL (also called VLQ(44)) [VLQGVLPAL, human chorionic gonadotropin-beta peptide 44-52]
- binding result: binds

Binder: GVLPALPQV (also called GVL(47)) [GVLPALPQV, human chorionic gonadotropin-beta peptide 47-55]
- binding result: binds
